# Source: patent publication US20240350583A1, “COMPOSITION FOR PREVENTING OR TREATING FIBROTIC DISEASES, COMPRISING HAPLN1” (Chung Ang University Industry Academic Cooperation …, priority 2021, published 2024)
# B1: rhHAPLN1: recombinant human HAPLN1 protein of SEQ ID NO: 1 produced in CHO-K1 cells, stabilized in acetic acid buffer, sucrose, PS80, pH 5.0 (protein, listed as Homo sapiens)
# chain: MKSLLLLVLISICWADHLSDNYTLDHDRAIHIQAENGPHLLVEAEQAKVFSHRGGNVTLPCKFYRDPTAFGSGIHKIRIKWTKLTSDYLKEVDVFVSMGYHKKTYGGYQGRVFLKGGSDSDASLVITDLTLEDYGRYKCEVIEGLEDDTVVVALDLQGVVFPYFPRLGRYNLNFHEAQQACLDQDAVIASFDQLYDAWRGGLDWCNAGWLSDGSVQYPITKPREPCGGQNTVPGVRNYGFWDKDKSRYDVFCFTSNFNGRFYYLIHPTKLTYDEAVQACLNDGAQIAKVGQIFAAWKILGYDRCDAGWLADGSVRYPISRPRRRCSPTEAAVRFVGFPDKKHKLYGVYCFRAYN
# What was measured:
# [1] = tested on: bleomycin-induced pulmonary fibrosis (BIPF); assay: Bleomycin-induced pulmonary fibrosis mouse model, prevention (inhalation from day 1); type: in vivo; conditions: for Ashcroft score (normal 0, control 6.25): nebulized 1 hour once daily for 10 days from 1 day after bleomycin
# Description: The experimental animals used were 8-week-old female C57BL/6N (KBSI, Daejeon, Korea) mice, and were set as a normal control group (Normal, PBS) and two dose of administration groups (composition of the present disclosure including rhHAPLN1 protein). The water was changed every two days and the mice were allowed to eat ad libitum, and the mice were placed in one cage of four, and the temperature in the room was kept at 21° C. to 24° C. and the humidity at 40% to 60%, and the day and night cycles were 12 hours each.
# To establish a bleomycin-induced pulmonary fibrosis (PF) model, 8-week-old female C57BL/6N mice were used, and divided into 4 groups (Normal, Control, 0.0005% (w/w) rhHAPLN1, 0.0015% (w/w) rhHAPLN1), with 4 mice per group, and the IPF disease induction method was referred to the paper by Liu et al. (Methods in Molecular Biology 2017, DOI: 10.1007/978-1-4939-7113-8_2) (see FIG. 12A). Administration of bleomycin (Bleomycin sulfate from Streptomyces verticillus. B8416; Sigma-Aldrich Co.) to induce idiopathic pulmonary fibrosis (IPF) was performed using a 1 ml-syringe and an oral dosing needle (Oral Zonde Needle 0.9×50 mm; 20 Guage) was used to anesthetize the patient and then carefully instillated orally intratracheally in a single 25 μl dose at a concentration of 2 U/kg, followed by nebulization with fresh 10 ml phosphate-buffered saline (1×PBS, pH 7.4; Gibco Co.) added dropwise to a nebulizer to generate nebulization and be freely inhaled.
# Starting 1 day after bleomycin administration, the control was a mixture of 50 μl of a stock solution consisting of 20 mM Tris-HCl, 0.5 M NaCl, pH 8.0, 50% glycerol and 10 ml PBS (1×, pH 7.4, Gibco Co.) solution, while the two groups for the compositions of the present disclosure were treated with 50 μl of rhHAPLN1 stock solution at a rhHAPLN1 weight ratio concentration of 0.0005% (w/w), in other words, 5,000 ng/ml, and 0.0015% (w/w), in other words, 15,000 ng/ml, respectively, were mixed in 10 ml PBS (1×, pH 7.4, Gibco Co.) and administered to each group once a day for 1 hour by nebulization via the nebulizer described above. The weight of each experimental animal was measured every 2 days to confirm that there was no change in weight, and a mass dosing system and aerosol chamber (Data Science International Co.) were used to generate the mist. […]
# Next, three tissue slides were prepared per mouse by cutting the middle portion of the left large lobe of the mouse, and three sections were photographed randomly on one slide, and then, for a total of nine sections, the stained darker part was distinguished from the unstained white part, and the area of the stained darker part was measured using Image J software, and each figure obtained was averaged to obtain an average value per mouse. […]
# [2] = tested on: human hepatic stellate cell (HHSC); assay: TGFβ1-induced fibrosis of human hepatic stellate cells, αSMA western blot; type: cell-based
# Description: (1) Human hepatic stellate cells (primary human hepatic stellate cell (HHSC; iXCells Biotechnologies, 10HU-210) were seeded (1.5×10^5 cells/well) in a 6-well plate according to the experimental scheme in FIG. 2A and incubated in stellate cell growth medium (iXCells Biotechnologies, MD-0014) in an incubator at 37° C. 5% CO2 for 24 hours.
# (2) After replacing with serum-free DMEM medium, the medium was incubated for 24 hours.
# (3) The plates were then treated with TGF31 (2 ng/ml) to induce fibrosis and incubated for 24 hours.
# (4) Afterwards, each well of the plate was then treated with the composition of the present disclosure at rhHAPLN1 protein content of 0, 3, 10, 30, and 100 ng/ml and pirfenidone 100 μg/mL and 200 μg/mL, respectively, and incubated for 24 hours.
# (5) Each sample was then treated with cell lysis buffer and harvested.
# (6) Western blotting was performed on the samples. Here, anti-αSMA Ab (Abcam, ab7817), anti-GAPDH Ab (Santa Cruz, sc-32233) were used as primary antibodies and HRP-conjugated anti-mouse IgG Ab (CST, #7076) as secondary antibodies to confirm the protein expression levels of αSMA and GAPDH.
molecule,measurement,setting,value
B1,"Ashcroft score (normal 0, control 6.25)","[1]; composition 1, rhHAPLN1 0.0005% (w/w)",5.25
same,"Ashcroft score (normal 0, control 6.25)","[1]; composition 2, rhHAPLN1 0.0015% (w/w)",0.5
same,H&E lung tissue form (FIG. 12B),[1]; rhHAPLN1 0.0015% (w/w),quite similar to that of the normal group
same,average area of dark (fibrotic) H&E-stained lung area compared to control (FIG. 12C),[1]; rhHAPLN1 0.0015% (w/w),reduced to be quite close to the normal group
same,expression level of αSMA compared to composition that does not include rhHAPLN1 protein (FIG. 2C),"[2]; TGFβ1 (2 ng/ml) 24 h, then rhHAPLN1 3, 10, 30, 100 ng/ml 24 h",significantly lower
same,"anti-fibrotic action from αSMA western blot band, compared to pirfenidone (FIG. 2B)","[2]; all rhHAPLN1 contents, pirfenidone 100 and 200 μg/mL",much better anti-fibrotic action compared to pirfenidone
same,anti-fibrotic efficacy compared to pirfenidone at 100 μg/mL and 200 μg/mL,"[2]; rhHAPLN1 3 ng/ml, αSMA",much higher anti-fibrotic efficacy
same,rhHAPLN1 protein content showing the most excellent anti-fibrotic efficacy,[2]; αSMA,3 ng/mL
